Test results published in PMC3575474.

Key:
[1] = tested on: Ku70/80 heterodimer (paper assigns Ku70 XRCC5, Ku80 XRCC6); assay: EMSA; conditions: Invitrogen non-radioactive EMSA kit (SYBR), 25 min at 25 C (stated for nuclear extract), 2.2-2.5% agarose; buffer, salt and pH not given
Nucleolin = assay: EMSA; conditions: Invitrogen non-radioactive EMSA kit (SYBR), 25 min at 25 C (stated for nuclear extract), 2.2-2.5% agarose; buffer, salt and pH not given

## IFIH1 rs13023380 A allele PCR product
[1]
  binding signal (fraction of G allele binding): 0.5
Nucleolin
  binding signal (fraction of G allele binding): 0.5
